Reference: article PMC3538135

Target: CD4 (recombinant CD4 antigen) (UniProt P01730 26-396)
Experiment: ellipsometry

GGGGTTGGTTGTGTTGGGTGTTGTGTCCAACCCCC (ssDNA, 5' thiol-C6) [IFN-gamma aptamer (nonsense control)]: no binding.
